Test results: publication PMC4546571 (Chemistry & biology, 2015)

Target: the molecule itself
Assay: seeded fibril assembly followed by ThT fluorescence

B1: PAP248-286 (peptide, UniProt P15309 248-286, looked up)
peptide: GIHKQKEKSRLQGGVLVNEILNHMKRATQIPSYKKLIMY
  binding result: binds
